Target: H3 hemagglutinin of influenza A/Hong Kong/68 (influenza A virus H3 A/Hong Kong/68)
Assay: cell-based or functional assay

| Binder | Minimum inhibitory concentrations required to neutralize virus [mg/L] |
| --- | --- |
| Antibody 4 (antibody, V domains shown) VH: QVQLQESGPGLVKPSETLSLTCTVSGYSFDSGYYWGWLRQPPGKGLEWIGSIYHSRNTYYNPSLKSRVTISVDTSKNQFSLQLSSVTAADTAVYYCARGTWYSSNLRYWFDPWGKGTL VL: NFMLTQPHSVSESPGKTVTISCTGSGGNIARNYVQWYQQRPGSAPVTVILEDDKRPSGIPDRFSGSIDRSSNSASLTISGLRTEDEALYYCQSYDDSDLVVFGGGTKLT | > 333 |
| Antibody 1 (antibody, V domains shown) VH: QVQLVQSGAEVKKPGSSVRVSCKTSGGTFSSYAVTWVRQAPGQGLEWMGGIIGMFGTTNYAQKFQGRLTITADEMTSTAYMELSSLRSEDTAVYYCARGSYYYETTLDYWGRGTL VL: ETTLTQSPGTLSLSPGERATLSCRVSQSVSSNYLAWYQQKPGQAPRLLIYGASSRATGIPDRFSGSGSGTDFTLTISRLEPEDFAVYYCQQYGTSPRAFGHGTKVEIKR | > 333 |
| Antibody 3 (antibody, V domains shown) V domain 1: EVQLVQSGAEVKKPGSSVKVSCKTSGGTFSSYAVTWVRQAPGQGLEWMGAIIGMFGTTNYAQKFQGRVTITADELTSTAYMELSSLRSDDTAVYYCARGSYYYESSLDYWGKGTL V domain 2: QSVLTQPPSVSGAPGQRVTISCGGSRSNIGAGYDVHWYQQFPGTAPKVVIYGNNNRPSGVPDRFSGSKSGTSASLAITGLQAEDEANYYCQSYDTNLGGSIFGGGTQVTVL | > 333 |
| Antibody 2 (antibody, V domains shown) VH: QVQLVQSGAEVKKPGSSVKVSCKTSGGTFSSYAVTWVRQAPGQGLEWMGGIIGMFGTTNYAQKFQGRVTITADELTSTAYMELSSLRSEDTAVYYCARGSYYYESSLDYWGRGTL VL: ETTLTQSPATLSVSPGERATLSCRASQSVSRNLAWYQQKPGQAPRLLIYGASSRATGIPDRFSGSGSGTDFTLTISRLEPEDFAVYYCQQYGSSSITFGQGTRLEIKR | > 333 |
